# Measurements as given in the nanobody polyreactivity screen of Harvey et al. (2022).
# Assay: yeast display, Sf9 membrane polyspecificity reagent, FACS + sequencing; frameworks hold sequencing errors
# Method in brief: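 Synthetic nanobody libraries on Saccharomyces cerevisiae BJ5465 were galactose-induced for 36–48 hours, stained 1 hour at 4 °C with 10% biotinylated, detergent-solubilized Sf9 membrane reagent and enriched on streptavidin microbeads. FACS then separated cells into low and high (top ~1%) gates by anti-HA (expression) and streptavidin (reagent binding) fluorescence. Genes were colony-PCR amplified, MiSeq 2 × 250 sequenced and CDR-length filtered. A clone's polyreactivity label is that of its gate of origin.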
row,Sequence,polyreactivity (PSR sort gate)
1,QVQLVESGGGLVQAGGSLRLSCAASGSIFSDNAMGWYRQAPGKERELVAAISWIGDSTDYADSVKGRFTISRDNAKNTVYLQMNSLKPEDTAVYYCAGDAKVVSPRYRANDIGMYYWGQGTQVTVSS,low polyreactivity
2,QVQLVESGGGLVQAGGSLRLSCAASGSIFSEYAMGWYRQAPGKERELVAAINDGGGSTYYADSVKGRFTISRDNAKNTVYLQMNSLKPEDTAVYYCAAETVRWWWLYDYWGQGTQVTVSS,high polyreactivity
3,QVQLVESGGGLVQAGGSLRLSCAASGSIFSFNAMGRSRQAPGKERELVASITSGGSTNYADSVKGRFTISRDNAKNTVYLQMNSLKPEDTEVYYCNARFPYLSRWLVRGLASYDYWGQGTQVTVSS,low polyreactivity
4,QVQLVESGGGLVQAGGSLRLSCAASGSIFSFNVMGWYRQAPGKEREMVATITGGGSTNYADSVKGRFTISRDNAKNTVYLQMNSLKPEDTAVYYCNKRNRWTPFYTYDYWGQGTQVTVSS,low polyreactivity
5,QVQLVESGGGLVQAGGSLRLSCAASGSIFSFYAMGSYRQAPGKERELVAAISWSGGSTYYADSVKGRFTISRDNAKNTVYLLMNSLKPEDTAVYYCAREKAVSYYGYDHWGQGTQVTVSS,low polyreactivity
6,QVQLVESGGGLVQAGGSLRLSCAASGSIFSFYAMGWYRQAPGKEREFVAAITISDDSTYYADSVKGRFTISRDNAKNTVYLQMNSLKPEDTAVYYCNARYLSWYFKYLYDYWGQGTQVTVSS,low polyreactivity
7,QVQLVESGGGLVQAGGSLRLSCAASGSIFSGNAMGWYRQAPGKKGVGCRYYSCWFYDYADSVKGRFTISRDNAKNTVYLQMNSLKPEDTAVYYCAKSNYVRSEFNYWGQGTQVTVSS,low polyreactivity
8,QVQLVESGGGLVQAGGSLRLSCAASGSIFSGNTMGWYRQAPGKERELVAAISGRGSNTYYADSVKGRFTISRDNAKNTVYLQMNSLKPEDTAVYYCAAPWVVRRTAYDYWGQGTQVTVSS,high polyreactivity
9,QVQLVESGGGLVQAGGSLRLSCAASGSIFSGYAMGWYRQAPGKERELVAAISGSGGSTFYADSVKGRFTISRDNAKNTVYLQMNSLKPEDTAVYYCAARRIAPYGRYDYWGQGTQVTVSS,low polyreactivity
10,QVQLVESGGGLVQAGGSLRLSCAASGSIFSGYAMGWYRQAPGKERELVAAITWRAASTYYADSVKGRFTISRDNAKNTVYLQMNSLKPEDTAVYYCAKEGGPKPAFYYWGQGTQVTVSS,low polyreactivity
11,QVQLVESGGGLVQAGGSLRLSCAASGSIFSGYAMGWYRQAPGKESELVAAISGSGGSTFYADSVKGRFTISRDNAKNTVYLQMISLKPEDTAVYYCAARRIAPFGRYDYWGQGTQVTVSS,low polyreactivity
12,QVQLVESGGGLVQAGGSLRLSCAASGSIFSHKVMGWYRQAPGKERELVAAITYRGGSTYYADSVKGRFTISRDNAKNTVYLQMNSRKPEDTAVYYCAALNEVSTYHGFDYWGQGTQVTVSS,low polyreactivity
13,QVQLVESGGGLVQAGGSLRLSCAASGSIFSIYAMGWYRQAPGKERELVAAISWNGGSTYYADSVKGRFTISRDNAKNTVYLQMNSLKPEDTAVYYCAVDEGPTKVRFGYWGQGTQVTVSS,high polyreactivity
14,QVQLVESGGGLVQAGGSLRLSCAASGSIFSLYAMGWYRPAPGKERELVAAISDGTGTNYADSVKGRFTISRDNAKNTVYLQMNSLKPVDTAVYYCATETYWYLPYYGDVEGNYWGQGTQVTVSS,low polyreactivity
15,QVQLVESGGGLVQAGGSLRLSCAASGSIFSLYAMGWYRPAPGKERELVAGISRSGGSTYYADSVKGRFTISRDNAKNTVYLQMNSLKPEDTAVYYCAARVKVRDFKGYYWGQGTQVTVSS,high polyreactivity
16,QVQLVESGGGLVQAGGSLRLSCAASGSIFSNAMGWYRQAPGKERELVAAITGRGGRTYYADSVKGRFTISRDNAKNTVFLQMNSLKPEDTAVDYCARDSPWSSRYRYRAFDYWGQGTQVTVSS,high polyreactivity
17,QVQLVESGGGLVQAGGSLRLSCAASGSIFSNYAMGWYRQAPGKERELVAAITLSSGGTYYADSVKGRFTISRDNAKNTVYFQMNSLKPEDTAVYYCAAQYKYFIHRYYYWGQGTQVTVSS,high polyreactivity
18,QVQLVESGGGLVQAGGSLRLSCAASGSIFSNYAMGWYRQAPGKERELVAAITLSSGGTYYADSVKGRFTISRDNAKNTVYLQMNSLKPEDTAVYYCAAQYKYFKHRYYYWGQGTQVTVSS,high polyreactivity
19,QVQLVESGGGLVQAGGSLRLSCAASGSIFSQYAMGWYRQAPGKERELVAAISSSGDSTNYADSVKGRFTISRDNAKNTVYLQMNSLKPEDTAVYYCNADTYWYRDSRYDYWGQGTQVTVSS,low polyreactivity
20,QVQLVESGGGLVQAGGSLRLSCAASGSIFSQYLMVWYRQAPGKERELVAAISWSGGHTYYADSVKGRFTISRDNAKNTVYLQMNSLKPEDTAVYYCATVPRKTPGNAELDYWGHGTQVTVSS,high polyreactivity
21,QVQLVESGGGLVQAGGSLRLSCAASGSIFSQYVMGWYRQAPGKERELVAAISSGGITYYADSVKGRFTISRDNAKNTVYLQMNSLKPEDTAVYYCNKTSWYQYGYWGQGTQVTVSS,low polyreactivity
22,QVQLVESGGGLVQAGGSLRLSCAASGSIFSRYAMGWYRQAPGKERELVAAITSSGGRTYYADSVKGRFTISRDNAKNTVYLQMNSLKPEDTAVYYCAADVRTPSEGYDYWGQGTQGTVSS,high polyreactivity

row,Sequence,polyreactivity (PSR sort gate)
1,QVQLVESGGGLVQAGGSLRLSCAASGSIFSRYAMGWYRQAPGKERELVAGISQRGGSTNYADSVKGRFTISRDNAKNTVYLQMNSLKPEDTAVYYCAARRITVWGYNPAYGYRFDYWGQGTQVTVSS,high polyreactivity
2,QVQLVESGGGLVQAGGSLRLSCAASGSIFSSNAMGWSRQAPGKERELVASIRRGGSTYYADSVKGRFTISRDNAKNTVYLQMNSLKPEDTAVYDCARRYVPWYATYDHWGQGTQVTVSS,high polyreactivity
3,QVQLVESGGGLVQAGGSLRLSCAASGSIFSSNVMGWYRQAPGKERELVAAITRRGSTTYYADSVKGRFTISRDNAKNTVYLQMNSLKPEDTAVYYCATKAKYGRQYLMDYWGQGTQVTVSS,high polyreactivity
4,QVQLVESGGGLVQAGGSLRLSCAASGSIFSSYAMGGYRQAPGKEWELVAAISRRGGSTYYADSVKGRFTISRDNAKNTVYLQMNSLKPEDTAVYYCNADSAARKGWPIYGYWGQGTQVTVSS,high polyreactivity
5,QVQLVESGGGLVQAGGSLRLSCAASGSIFSSYAMGWSRQAPGKEREFVAAISTGGRTYYADSVKGRFTISRDNAKNTVYLQMNSLKPEDTAVYYCAADGPLPHKVGTHTLDYWGQGTQVTVSS,low polyreactivity
6,QVQLVESGGGLVQAGGSLRLSCAASGSIFSSYAMGWYRPAPWKESELVAAITYNGGSTFYADSVKGRFTISRDNAKNTVYLPMYCLKPVDTAVYYCAAEYVGYYVYTWLYDYWGQGTQVTVSS,high polyreactivity
7,QVQLVESGGGLVQAGGSLRLSCAASGSIFSSYAMGWYRQAPGKERELVAAISGGGNTYYADSVKGRFTISRDNAKNTVYLQMNSLKPEDTAVYYCATDTYDPFHIEDDYWGQGTQVTVSS,low polyreactivity
8,QVQLVESGGGLVQAGGSLRLSCAASGSIFSSYAMGWYRQAPGKERELVAAISSSGDSTYADSVKGRFTISRDNAKNTVYLQMISLKPEDTAGYYCAVGGAGSDDYWGQGTQVTVSS,low polyreactivity
9,QVQLVESGGGLVQAGGSLRLSCAASGSIFSSYAMGWYRQAPGKERELVAAITSGGSTYYADSVKGRFTISRDNAKNNVYLQMNSLKPEDTAVYYCAARQVRTSKLHMGYWGQGTQVTVSS,low polyreactivity
10,QVQLVESGGGLVQAGGSLRLSCAASGSIFSSYAMGWYRQAPGKERELVASISRRGGSTYYADSVKGRFTISRDKAKNTVYLQMNSLKPEDTAVYYCTASGGPYRYYYWGQGTQVTVSS,low polyreactivity
11,QVQLVESGGGLVQAGGSLRLSCAASGSIFSSYAMVWYRQAPGKERELVAAIDGSGGSTYADSVKGRFTISRDHAKNTVYLQMNSLKPEDTAVYYCAADSYSGRYYWWEYDYWGQGTQVTVSS,low polyreactivity
12,QVQLVESGGGLVQAGGSLRLSCAASGSIFSSYVMGWYRQAPGKERELVAAMSRSGGSTYYADSVKGRFTISRDNAKNTVYLQMNSLKPEDTAVYYCAADWTRGSPGMDYWGQGTQVTVSS,high polyreactivity
13,QVQLVESGGGLVQAGGSLRLSCAASGSIFSTNALGWYRQAPGKERELVAGITRSGGRTYYADSVKGRFTISRDTAKNTVYLQMNSLKPEDTAVYYCTAVRPHRYYSWGQGSQVTVSS,high polyreactivity
14,QVQLVESGGGLVQAGGSLRLSCAASGSIFSTNAMGWYRQAPGKERELVAGISSDDSTYADSVKGRFTISRDNAKNTVYLQMNSLKQADTAVYYCAAEDNWYNVGYYYWGQGTQVTVSS,low polyreactivity
15,QVQLVESGGGLVQAGGSLRLSCAASGSIFSTYAMGWYRQAPGKERELVAAISQGGSSTYYADSVKGRFTISRDIAKNTVYLQMKSLKAEDTAVYYCAKFPYLKFGYDYWGQCTQVTVSS,high polyreactivity
16,QVQLVESGGGLVQAGGSLRLSCAASGSIFSTYAMGWYRQAPGKERELVAAISVSGSSTYYADSVKGRFTISRDNAKNTVYLQMNSLKPEDTAVYYCAADVPYGASIISYDYWGQGTQVTVSS,low polyreactivity
17,QVQLVESGGGLVQAGGSLRLSCAASGSIFSTYAMGWYRQAPGKERELVATIRRGGSTYYADSVKGRFTISRDNAKNTVYLQMNSLKPEDTAVYYCAATVSSYPYYRYYSWGQGTQVNVSS,high polyreactivity
18,QVQLVESGGGLVQAGGSLRLSCAASGSIFSTYVMGWYRQAPGKERELVAAISRRGGSTYYADSVKGRFTISRDNAKNTVYLQMNSLKPEDTAVYYCAARGQFRYSFGDYSWGQGTQVTVSS,high polyreactivity
19,QVQLVESGGGLVQAGGSLRLSCAASGSIFSVNDMGWYRQAPGKERELVAAISSGGSTNYADSVKGRFTISRDNAKNTVSLQMNSLKPEDTAVYYCNTVVRGWSSSAYDYWGQGTQVTVSS,low polyreactivity
20,QVQLVESGGGLVQAGGSLRLSCAASGSIFSVNSMGWYRPAPGKERELVATIRTGDSTNYADSVKGRFTISRDNAKNTVYLQMNSLKPEDTAVYYCAAEWSSLNFDYWGHGTQVTVSS,low polyreactivity
21,QVQLVESGGGLVQAGGSLRLSCAASGSIFSVYAMGWYRQAPGKERELVASITRSGGRTYYADSVKGRFTISRDNPKNTVYLQMNSLKPEDTAVYYCAADRLGSISGYDYWGQGTQVTVSS,high polyreactivity
